From the DeepSol protein solubility set come the findings set out here.

The nature of this data set: soluble on expression in E. coli; label from the status in PepcDB or PDB records.
On to “MLDPRLSVAPMVDRTDRHFRFLVRQVSLGVRLYTEMTVDQAVLRGNRERLLAFRPEEHPIALQLAGSDPKSLAEAARIGEAFGYDEINLNLGCPSEKAQEGGYGACLLLDLARVREILKAMGEAVRVPVTVKMRLGLEGKETYRGLAQSVEAMAEAGVKVFVVHARSALLALSTKANREIPPLRHDWVHRLKGDFPQLTFVTNGGIRSLEEALFHLKRVDGVMLGRAVYEDPFVLEEADRRVFGLPRRPSRLEVARRMRAYLEEEVLKGTPPWAVLRHMLNLFRGRPKGRLWRRLLSEGRSLQALDRALRLMEEEVGEEGEKEKPGPRGQREAAPGPAREGV”, for which the “soluble on expression in E. coli” value is “soluble”.

Consider “LAMEVGSDSITLTSANTSADAKSVQLFEDFSCSHCSELSLATDADMKTQIEDGNLVVEIKPLNFLDRENIDGHSTHALAAALAVADSNDATLYWNFRAFLMEDQSEIYNQWSDDDFADGVEALGADSSVVDAIRNGDNIQRAYDLATANGEELTEETGSL”, for which the “soluble on expression in E. coli” value is reported as “not soluble”.

Regarding “MLLCAGRNETLKKAVPIGVGLIESAINLTRMCLKNPDTESLIFIGSAGSYSPEMELLSVFESVCGYQIEESFSHLNSYTPLDNFIHIETEEQALFERVRVNSSNYIHTSEMFAKKMVQKGVLLENMEFFSVLSVAKAFSLKAKGIFCVSNYVGLNAYQEFKENHAKVKQILENIIDSLII”, the “soluble on expression in E. coli” value was “soluble”.

For the sequence “MKNLAIFDLDNTLINTDSDHAWPQYLIKKGLVDAAETEAQNEKFYRDYQNGCLDIDAFLKLHLAPLARYSKEELAEFHREFMAEYIIPHISPMQRMLVQSHQMAGDETLVISSTNEFIITPVCRLFGIANMIGTQLETGPDGRYTGNYIGTPSLKEGKITRLNQWLAERGETLESYGKTYFYSDSKNDLPLLRLVSEPVAVNPDAELEKEAKEKGWPVLNFK”, the “soluble on expression in E. coli” value is listed as “not soluble”.

Turning to “MAVKHKSESLKHEEGAAKKAKTGLLKLKKIMDIESNVVKYSICIPTTVIDNCNNLEQVTFTAYQIARTAVLFNVQEIIVLDQSKDKKHEKKSRSKETISDCLLLATLLQYFVTPPNLLDTTFKKKNKLYLKCASTFPPLNQLPFMNASAEQHYKEGLSIARDSSKGKSDDALTNLVYIGKNQIITLSNQNIPNTARVTVDTERKEVVSPIDAYKGKPLGYHVRMASTLNEVSEGYTKIVWVNSGDFHYDEELSKYHKVETKLPYIAKLKKSSTSEKPCNILLIFGKWGHLKRCFRRSDLESSSLHHYFSGQLQFPASVPQGNIPIQDSLPIALTMFQRWAS”, the “soluble on expression in E. coli” value is on record as “soluble”.

Turning to “MSAFASSDRAEKSGIALEAQQKIYEKYDKNLAGEILQWVQNVTGQSFDTQGDADNLVKVFQDGSLLCTLANSLKPGSVKKVNTSAMAFKKMENISFFLKFAEEYVQKSELFQTVDLYEGQDPNAVLICLASLARKSEKNFGRSGLGPKEAQGDRREWTDEQLKAGHNVIGLQMGSNKGATASGLNMGNTRHM”, the “soluble on expression in E. coli” value is listed as “not soluble”.

Take “MSLPAPQDPRNLPIRQQMEALIRRKQAEITQGLESIDTVKFHADTWTRGNDGGGGTSMVIQDGTTFEKGGVNVSVVYGQLSPAAVSAMKADHKNLRLPEDPKTGLPVTDGVKFFACGLSMVIHPVNPHAPTTHLNYRYFETWNQDGTPQTWWFGGGADLTPSYLYEEDGQLFHQLHKDALDKHDTALYPRFKKWCDEYFYITHRKETRGIGGIFFDDYDERDPQEILNMVEDCFDAFLPSYLTIVKRRKDMPYTKEEQQWQAIRRGRYVEFNLIYDRGTQFGLRTPGSRVESILMSLPEHASWLYNHHPAPGSREAKLLEVTTKPREWVKEGHHHHHH”: the “soluble on expression in E. coli” value is “soluble”.

On to “MSLKKSWLGYAQGYLLYRDLNNHSMTAIRISPETLEQDGTVLLPDCHTEGQNILFTDGEYINQIAASRDDGFVVRIFATSTEPVLQQELQLKLARKCLHACGISLFDLEKDLHIISTGFDEESAILGAGREFALMKTANGKIYYTGKYQSLGIKQGGPSAGKWVELPITKSPKIVHFSVGHDGSHALLVAEDGSVFFTGSASKGEDGESTKSRRQSKPYKPKKIIKMEGKIVVYTACNNGSSSVISKDGELYMFGKDAIYSDSSSLVSDLKGHFVTQVAMGKAHTCVLMKNGEVWTFGVNNKGQCGRDTGAMNQGGKGFGVENMATAMDEDLEEELDEKDEKSMMCPPGMHKWKLEQCMVCTVCGDCTGYGASCVSSGRPDRVPGGICGCGSGESGCAVCGCCKACARELDGQEARQRGILDAVKEMIPLDLLLAVPVPGVNIEEHLQLRQEEKRQRVIRRHRLEDGRGPLVFAGPIFMNHREQALARLRSHPAQLKHKRDKHKDGSGDRGEKDASKITTYPPGSVRFDCELRAVQVSCGFHHSVVLMENGDVYTFGYGQHGQLGHGDVNSRGCPTLVQALPGPSTQVTAGSNHTAVLLMDGQVFTFGSFSKGQLGRPILDIPYWNAKPAPMPNIGSKYGRKATWIGASGDQTFLRIDEALINSHEGHHHHHH”, for which the “soluble on expression in E. coli” value is given as “not soluble”.

Take “MVAELAGQQDPGLGAFSCQEARRAWLDRHGNLDEAVEECVRTRRRKVQELQSLGFGPEEGSLQALFQHGGDVSRALTELQRQRLEPFRQRLWDSGPEPTPSWDGPDKQSLVRRLLAVYALPSWGRAELALSLLQETPRNYELGDVVEAVRHSQDRAFLRRLLAQECAVCGWALPHNRMQALTSCECTICPDCFRQHFTIALKEKHITDMVCPACGRPDLTDDTQLLSYFSTLDIQLRESLEPDAYALFHKKLTEGVLMRDPKFLWCAQCSFGFIYEREQLEATCPQCHQTFCVRCKRQWEEQHRGRSCEDFQNWKRMNDPEYQAQGLAMYLQENGIDCPKCKFSYALARGGCMHFHCTQCRHQFCSGCYNAFYAKNKCPEPNCRVKKSLHGHHPRDCLFYLRDWTALRLQKLLQDNNVMFNTEPPAGARAVPGGGCRVIEQKEVPNGLRDEACGKETPAGYAGLCQAHYKEYLVSLINAHSLDPATLYEVEELETATERYLHVRPQPLAGEDPPAYQARLLQKLTEEVPLGQSIPRRRK”: the “soluble on expression in E. coli” value is reported as “soluble”.

In the case of “SKDLSVSLQANFTYNKNKMVYVDEPEYPTIWKSETGKPYSRITGYIAEGLFKSQEEIDNSPAQNLGSTPKVGDIKYRDLNGDGIIDSDDQTMISKYGSTPRLQYGFGGTVNYKKFDFGVFFSGSALRSIMTNGIDPFQEGIAVGNRNVLKYIADNYWSEEKQNWDAKYPRLGLLATDVANNTVNSSYWLRNGSFLRLKNVEVGYKIPYGRIFVSAANLFTFSPFDLWDPELSSWNSYPMQKTVNVGIQLQF”, the “soluble on expression in E. coli” value is “not soluble”.

With “MNIFSKPDPKELERANKRELRKTNRDLESDRRQMDRREKELEQEIKKLAAKGHNDAARHLAKQLVQLRNQKTKSIGMSARISGVQAQNSHMQSMAKMGSAMGTTVKTMKAMNAQMPLEKVAANMREFQMAQEKMGLTEEMMNDTLDSILDAPGDADEQDAIVNQVLDEIGIEMNSKLANVPALPTKVSSTAPADFDDLEAQLARLRS”, the “soluble on expression in E. coli” value is “not soluble”.

With “MGSDKIHHHHHHVVLDTDLASIQESRNLVQKAKEAQLHLAHFNEQQIDKILASIVAAVEENAEGLARMACQETEYGIVEHKIAKNLFAARDVYESTKHIKTIGTISEDPDRKVIRYAAPMGVLVGITPRTNPTSTIIHNALCAIKGANAIVFSPHPFAVQCGCATASLINEAAVKAGAPDGVCSCLSMTSLQASHELMHHPDVAAIIATGGPGLVKSAYSAGKPAFGVGSGNVPVFIERSADIKQAVNDIMVSKTFDNGMICASEQAILADQPIKDEVIKELQNQGAYFLSPEEVQKVGRVVIHANGSMNNALVGQSPAVIAQRAGISIPADTALLIAPMEGYGKDYPLSHEKLTTVLGFYVVQDWKEACHLSIELLKLGGIGHSCAIHSQNEQVIREFLAKPVFRIIVNTPSALGGIGQTTGIMPSLTLGCGTWGGSSISENLGPQHLINIKHLTYGLKKVAFHKVPATQGNVSPLLPPTKATSWDIKSDDIDDVVKQVLQQLKIG”, the “soluble on expression in E. coli” value was “not soluble”.

In the case of “MKAKREALISLFHAIKEEKVDSDIIDLLLLINSIKGIYTTSSCSGRIGILEEPSLGAKPLSRWLIKVHRPMSFEEARDALKRAREGLIFLKSQPPIFHVVAETIENAKLVHEIGLASGFKYTTFKAISSRFLVEINGTEYLTVPLGKDGRIIASDEYLKFAISIGNKMLERGKSKLPRLRDNFEKIKKKLGEDPLFIQLKREILEI”, the “soluble on expression in E. coli” value is listed as “soluble”.

Consider “SAAARATTPADGEEPAPEAEALAAARERSSRFLSGLELVKQGAEARVFRGHFQGRAAVIKHRFPKGYRHPALEARLGRRRTVQEARALLRCRRAGISAPVVFFVDYASNCLYMEEIEGSVTVRDYIQSTMETEKTPQGLSNLAKTIGQVLARMHDEDLIHGDLTTSNMLLKPPLEQLNIVLIDFGLSFISALPEDKGVDLYVLEKAFLSTHPNTETVFEAFLKSYSTSSKKARPVLKKLDEVRLRGRKRSMVG”, for which the “soluble on expression in E. coli” value is “soluble”.

On to “MPICTRLTAQIVKVAVNQPVAIRSSMWAKNNQNIHFMNLHVKKLEKLLLF”, for which the “soluble on expression in E. coli” value was “not soluble”.

For “MGSDKIHHHHHHMPKRPVRKPGVFARLEDLYTRMETAYNATAAAAGLTCTGCDDNCCRTHFRHHTRIEWAYLWKGMLSLSPERREAYLERAKDVVAQCDAALAAGVVPRVMCPLNDEGRCGLYKYRLMICRMHGTRNILRLPDGRTQVFRGCHRFDNCTAQFADADRPSLDRTPLYTELAKLEMEHLGPTAARQQRVDLTLAEMLVYGPPKP”, the “soluble on expression in E. coli” value was “not soluble”.

With “MGSDKIHHHHHHMQINRLFEIIYILLENRTITAAELAERFEVSARTIYRDVEILAQGGMPIYMSKGKGGGISLLPDFILNKAVLTEEEKSEILSSLQAFNAVNLSKSETALSKLTSMLGAKNTDWIEVDFSSWGHFENDRAYFENIKTAIIEKKIITFMYASGKAEKLLREVLPLKLVFKGAAWYLYGYCTLRRDYRFFKLRRITELAVTDTGFEMKTPETIFAGQKLDTGTYLKAKLLISKTMAFRVYDEISSYEIDEKGDFVCRLYLPDIATLCTYAASFGEHCIILSPEQAVAEMKRRLQNSLKNYS”, the “soluble on expression in E. coli” value is reported as “not soluble”.

Regarding “MSLGNARMYEALRDYGDRFDTVGIFTFEVDETGTITETGTSISSMLPYIQKWPHIKWLLTIMNHGIANIFTALRNNENGAKDKFLTEIIRIMNKYPWCAGVDIDLERGGGYENKDAANALFRDIYNTVKSYDATKLVNICLPGMIGVQGSVGGENWCVYADLNDYCDTAAIMSYGMAWAGSAPGPVSPRDWLEGIYDYAVSVMSPDKIFMGLPAYGWNWRIHDTPENLGITYRGVSNTYYAAKYWMTGVYNFTGDAPPQPFIPIVAYWDDYNKVPWALPHVYDYMEGWDAVSWEYPLLKGVYNRRRYLTSYGKEQKAEFGTIYIDRNGVPDEYEGNVIITDEMTSLGDAQASAEYRFEIREAGYYDIAVQLCFPYWDKNAIIVSLDGISKTFSENEGHHHHHH”, the “soluble on expression in E. coli” value was “not soluble”.

As for “MKVTLPDFRRAGVLVVGDVMLDRYWYGPTCRISPEAPVPVVKVDTIEERPGGAANVAMNIASLGAVARLVGLTGIDDAARALICKLSEVRVRCDFVSVPTHPTITKLRVLSRNQQLIRLDFEEGFDGVDPTPIFERIQLALPQIGALVLSDYAKGALNSVQPMIQLARKANVPVLIDPKGSDFERYRGATLLTPNLSEFEAVVGRCKNEEELVNRGMQLVADFELSALLVTRSEQGMTLLQLGKPPLHLPTQAKEVFDVTGAGDTVIGVLAAALAAGNSLEESCFLANAAAGVVVGKLGTSTVSPIELENAIRGRAETGFGVMDEQQLKIAVAQARQRGEKVVMTNGIFDILHAGHVSYLANARKLGDRLIVAVNSDASTKRLKGEKRPVNPLEQRMVVLGALEAVDWVVPFEEDTPQRLIADILPDLLVKGGDYKPHEIAGSEEVWAAGGEVKVLNFEDGVSTTNIIQSIKNGRG”, the “soluble on expression in E. coli” value is recorded as “not soluble”.
